13 substances from US7923016 can be followed below.

Sequence of CXC chemokine receptor 4 (CXCR4) on THP-1 cells (P61073 whole entry): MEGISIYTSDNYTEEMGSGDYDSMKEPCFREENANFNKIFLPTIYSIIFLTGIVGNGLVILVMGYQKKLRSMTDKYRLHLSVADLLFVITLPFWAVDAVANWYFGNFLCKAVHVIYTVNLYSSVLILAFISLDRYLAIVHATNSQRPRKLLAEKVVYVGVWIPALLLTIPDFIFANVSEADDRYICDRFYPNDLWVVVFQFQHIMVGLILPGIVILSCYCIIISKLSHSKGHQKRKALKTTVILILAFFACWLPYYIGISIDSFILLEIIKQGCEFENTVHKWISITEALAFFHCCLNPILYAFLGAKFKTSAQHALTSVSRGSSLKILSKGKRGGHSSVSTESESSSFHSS

One assay addresses wild-type CXCL12-α (UniProt P48061). The assay can be described thus: apparent Kd; method not given.
As to “p38-sY3 (CXCR4 N-terminal peptide p38 with sulfotyrosine at positions 7, 12 and 21)”, the Kd was 200 nM.

Another assay shares this target. The assay can be described thus: method not given; reference is unsulfated p38.
Regarding “p38-sY3 (CXCR4 N-terminal peptide p38 with sulfotyrosine at positions 7, 12 and 21)”, the fold tighter binding than the unsulfated peptide (p38) was found to be 20 fold.

Another assay addresses CXC chemokine receptor 4 (CXCR4) on THP-1 cells (UniProt P61073). As to the kind of experiment: cell-based or functional assay.
Take “CXCL12-α E60A (from UniProt P48061 22-93) (ligand)”: the EC50 (nM), CXCR4 activation, Ca2+-flux in THP-1 cells was 4.1 nM and the Fold Increase of EC50 over wild-type CXCL12-α worked out at 1.1 fold.

Regarding “CXCL12-α E63A (from UniProt P48061 22-93) (ligand)”, the EC50 (nM), CXCR4 activation, Ca2+-flux in THP-1 cells stood at 3.7 nM and the Fold Increase of EC50 over wild-type CXCL12-α worked out at 1 fold.

Substance “CXCL12-α H25R (from UniProt P48061 22-93) (ligand)” gave an EC50 (nM), CXCR4 activation, Ca2+-flux in THP-1 cells of 5.1 nM and a Fold Increase of EC50 over wild-type CXCL12-α of 1.4 fold.

“CXCL12-α K27A (from UniProt P48061 22-93) (ligand)” showed an EC50 (nM), CXCR4 activation, Ca2+-flux in THP-1 cells of 10.1 nM and a Fold Increase of EC50 over wild-type CXCL12-α of 2.8 fold.

As for “CXCL12-α K27E (from UniProt P48061 22-93) (ligand)”, the EC50 (nM), CXCR4 activation, Ca2+-flux in THP-1 cells came to 16.8 nM and the Fold Increase of EC50 over wild-type CXCL12-α came to 4.7 fold.

Turning to “CXCL12-α K64A (from UniProt P48061 22-93) (ligand)”, the EC50 (nM), CXCR4 activation, Ca2+-flux in THP-1 cells was 5 nM and the Fold Increase of EC50 over wild-type CXCL12-α turned out to be 1.4 fold.

Substance “CXCL12-α R20A (from UniProt P48061 22-93) (ligand)” displayed an EC50 (nM), CXCR4 activation, Ca2+-flux in THP-1 cells of 4.3 nM and a Fold Increase of EC50 over wild-type CXCL12-α of 1.2 fold.

Regarding “CXCL12-α R41A (from UniProt P48061 22-93) (ligand)”, the EC50 (nM), CXCR4 activation, Ca2+-flux in THP-1 cells came to 4.3 nM and the Fold Increase of EC50 over wild-type CXCL12-α came out at 1.2 fold.

Turning to “CXCL12-α R47A (from UniProt P48061 22-93) (ligand)”, the EC50 (nM), CXCR4 activation, Ca2+-flux in THP-1 cells was 14.1 nM and the Fold Increase of EC50 over wild-type CXCL12-α was 3.9 fold.

Take “CXCL12-α R47E (from UniProt P48061 22-93) (ligand)”: the EC50 (nM), CXCR4 activation, Ca2+-flux in THP-1 cells stood at 654 nM and the Fold Increase of EC50 over wild-type CXCL12-α was determined as 182 fold.

“CXCL12-α V39A (from UniProt P48061 22-93) (ligand)” registered an EC50 (nM), CXCR4 activation, Ca2+-flux in THP-1 cells of 27.1 nM and a Fold Increase of EC50 over wild-type CXCL12-α of 7.5 fold.

For the substance “CXCL12-α V49A (from UniProt P48061 22-93) (ligand)”, the EC50 (nM), CXCR4 activation, Ca2+-flux in THP-1 cells was 8.6 nM and the Fold Increase of EC50 over wild-type CXCL12-α came to 2.4 fold.
